A short description of this data set: yeast display, Sf9 membrane polyspecificity reagent, FACS + sequencing; frameworks hold sequencing errors. In short, it runs like this: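 Synthetic nanobody libraries on Saccharomyces cerevisiae BJ5465 were galactose-induced for 36–48 hours, stained 1 hour at 4 °C with 10% biotinylated, detergent-solubilized Sf9 membrane reagent and enriched on streptavidin microbeads. FACS then separated cells into low and high (top ~1%) gates by anti-HA (expression) and streptavidin (reagent binding) fluorescence. Genes were colony-PCR amplified, MiSeq 2 × 250 sequenced and CDR-length filtered. A clone's polyreactivity label is that of its gate of origin.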
As for “QVQLVESGGGLVQAGGSLRLICAASGRIFFTYAMGWYIQAPGKERQLVASITGSGGSTYYADSVKGRFTISRDNAKNTVYLQMNSLKPEDTAVYYCAAALFRRQLYRKFYYWGQGTQVTVSS”, the “polyreactivity (PSR sort gate)” value is listed as “low polyreactivity”. The entry for “QVQLVESGGGLVQAGGSLRLICAASGRIFGLNAMGWYRQAPGKEREFVAAITWRGGRTYYADSVKGRFTISRDNAKNTVYLQMNSLKPEDTAVYYCAADGGSTLDYYWGQGTQVTVSS” is “low polyreactivity”.

Turning to “QVQLVESGGGLVQAGGSLRLICAASGRIFGRNAMGWYRQAPGKERELVAVITWRGGSTYYADSVKGRFTISRDNAKNTVYLQMNSLKPEDTAVYYCAADTSRYYLPRYRTDYWGQGTQVTVSS”, the “polyreactivity (PSR sort gate)” value is “high polyreactivity”. Regarding “QVQLVESGGGLVQAGGSLRLICAASGRIFRANAMGWYRQAPGQERELVATITISGGSTYYADSVKGRFTISRDNAKNTVYLQMNCLKPEDTAVYYCNAGHTLTFVPRPAYYSMYYWGQGTQVTVSS”, the “polyreactivity (PSR sort gate)” value is given as “low polyreactivity”. Consider “QVQLVESGGGLVQAGGSLRLICAASGRIFTSNAMGWYRQAPGKERELVAAISKSGGSTYYADSVKGRFTISRDNAKNTVYLQMNSLKPEDTAVYYCAAVPWRGFDYWGQGTQVTVSS”, for which the “polyreactivity (PSR sort gate)” value was “high polyreactivity”.

Consider “QVQLVESGGGLVQAGGSLRLICAASGRIFVKYAIGWYRQAPGKERELVASITSGGRTNYADSVKGRFTISPDIAKNTVYLQMNSLKPEDTAVYYCAAVWRTASTQYYYWGQGTQVTVSS”, for which the “polyreactivity (PSR sort gate)” value is “high polyreactivity”.

In the case of “QVQLVESGGGLVQAGGSLRLICAASGRIFYINAMGWYRQAPGKERELVASITGSGGRTYYADSVKGRFTISRDNAKNTVYLQMNSLKPEDTAVYYCNADLYVGYLYYLYDYWGQGTQVTVSS”, the “polyreactivity (PSR sort gate)” value is recorded as “low polyreactivity”.

With “QVQLVESGGGLVQAGGSLRLICAASGRIFYRNAMGWYRQAPGKERELVAAISGATSTYYADSVKGRFTFSRDNAKNTVYLQMNSLKREDTAVYYCAAKIIWYTIRHGSAGFNYWGQGTQVTVSS”, the “polyreactivity (PSR sort gate)” value is recorded as “high polyreactivity”. On to “QVQLVESGGGLVQAGGSLRLICAASGRIFYSYAMGWYRQAPGKERELVAAITVSGGSTFYADSVKGRFTISRDNAKNTVYLQMNSLKPEDTAVYYCAATRFSQYDWGQGTQVTVSS”, for which the “polyreactivity (PSR sort gate)” value is reported as “high polyreactivity”. The entry for “QVQLVESGGGLVQAGGSLRLICAASGRIIYCNGMGWYRQAPGKERELVAAISSGGSTYYADSVKGRFTISRDNAKNTVYLQMNCLKPEDTAVYYCAADIDYESDRYDYWGQGTQVTVSS” is “low polyreactivity”; for “QVQLVESGGGLVQAGGSLRLICAASGRILYKNSMGWYRQAPAKEMQLVAAISSTAGYTYYADSLKGRFTISRDNAKNTVYLQMNSLKPEDTAVYYCAARRSGVKRRYDYWGQGTQVTVSS” it is “low polyreactivity”. As to “QVQLVESGGGLVQAGGSLRLICAASGRISLSNAMGWYRHAPGKEREFVAAITKRSDRTYYADSVKGRFTISRDNAKNTVYLQMNSLKPEETAVYYCAAKPLFGTRDDYWGQGTQVTVSS”, the “polyreactivity (PSR sort gate)” value is reported as “low polyreactivity”. For “QVQLVESGGGLVQAGGSLRLICAASGRNCVYYAMGWYRQAPGKERELVAAITSGDSTYYADSVKGRFTISRDNAKNTVYLQMNSLKPEDTAVYYCAADHYYGSESGGFVIYYYWGQGTQVTVSS”, the “polyreactivity (PSR sort gate)” value was “low polyreactivity”. The entry for “QVQLVESGGGLVQAGGSLRLICAASGRTFAGNAMGWYRQAPGKERELVAAITWSGGSTYYADSVKGRFTISRDNAKNTVYLQMNSLKPEDTAVYYCAADSQPPHELYESIEHESWGQGTQVTVSS” is “low polyreactivity”. The entry for “QVQLVESGGGLVQAGGSLRLICAASGRTFATYAMGWYRQAPGKERELVAAISNSGGRTNYADSVKGRFTISRDNAKNTVYLLMNSLKPEDTAVFYCATKAYTSGRYYWGQGTQVTVSS” is “high polyreactivity”.

Regarding “QVQLVESGGGLVQAGGSLRLICAASGRTFGPYAMGWYRQAPGKEREFVAAITWRGGRTNYADSVKGRFTISRDNAKNTVYLQMNSLKPEDTAVYYCNAVISPHQWIRGGDSWGQGTQVTVSS”, the “polyreactivity (PSR sort gate)” value is given as “low polyreactivity”.
